Test results as given in PMC5964521 (Infection and Immunity, 2018).

B1: biotinylated antibody D8, recombinant human IgG1 (antibody, V domains shown)
VH: QITLRESGAEVTKPGSSVKVSCKASGGTFGSYGIRWVRQAPGQGLEWMGGIIPMFGTANYAQRFQGRVTITADKSTSTAYMELSSLKSEDTAVYYCARENSIVGANWFDPWGQGTLVTVSS
VL: EIVMTQSPSSLSASVGDRVTFTCRASQSISTYLNWYQQKPGKAPTLLIYAASTLRSGVPSRFSGSGSGTDFTLTISSLQPVDFATYFCQQSYSSPYTFGQGTTLEIK
B2: antibody D8 (antibody, V domains shown)
VH: QITLRESGAEVTKPGSSVKVSCKASGGTFGSYGIRWVRQAPGQGLEWMGGIIPMFGTANYAQRFQGRVTITADKSTSTAYMELSSLKSEDTAVYYCARENSIVGANWFDPWGQGTLVTVSS
VL: EIVMTQSPSSLSASVGDRVTFTCRASQSISTYLNWYQQKPGKAPTLLIYAASTLRSGVPSRFSGSGSGTDFTLTISSLQPVDFATYFCQQSYSSPYTFGQGTTLEIK
B3: biotinylated antibody A12, recombinant human IgG1 (antibody, V domains shown)
VH: QVTLKESGGGLVKPGGSLRLSCAASGFTFTDYYMTWIRQAPGKGLEWVSCVGSSGTYTNYAQNVQGRFTISRDNAKNSLYLQMNSLRTEDTAVYYCARVTGSGNFYGSYHYYYMDVWGKGTMVTVSS
VL: EVVLTQSPATLSLSPGKKATLSCRASQSVSNYLAWYQQKPGQSPRLLIFDASKRAAGIPARFSGSGSGTDFTLTISSLEPEDFAVYYCQQRTNWLTFGGGTKVEIK
B4: antibody A12 (antibody, V domains shown)
VH: QVTLKESGGGLVKPGGSLRLSCAASGFTFTDYYMTWIRQAPGKGLEWVSCVGSSGTYTNYAQNVQGRFTISRDNAKNSLYLQMNSLRTEDTAVYYCARVTGSGNFYGSYHYYYMDVWGKGTMVTVSS
VL: EVVLTQSPATLSLSPGKKATLSCRASQSVSNYLAWYQQKPGQSPRLLIFDASKRAAGIPARFSGSGSGTDFTLTISSLEPEDFAVYYCQQRTNWLTFGGGTKVEIK
B5: biotinylated antibody A8, recombinant human IgG1 (antibody, V domains shown)
VH: QVQLVESGAEVKKPGASVKVSCKTSGYTFSSYGITWVRQAPGQGLEWMGWISAYNGDTNYADSVKGRVTMTTDTSTSTAYMELRSLRFDDTAVYYCARDTSFAPSGYGFDISGQGTTVTVSS
VL: DIQLTQSPSSLSASVGDRVTITCRASQGIRHELAWYQQKPGKAPQRLIYAASSLQSGVPSRFSGSGSGTDFTLTINSLQPEDSATYYCLQVNSYPRTFGQGTRVDIK
B6: antibody A8 (antibody, V domains shown)
VH: QVQLVESGAEVKKPGASVKVSCKTSGYTFSSYGITWVRQAPGQGLEWMGWISAYNGDTNYADSVKGRVTMTTDTSTSTAYMELRSLRFDDTAVYYCARDTSFAPSGYGFDISGQGTTVTVSS
VL: DIQLTQSPSSLSASVGDRVTITCRASQGIRHELAWYQQKPGKAPQRLIYAASSLQSGVPSRFSGSGSGTDFTLTINSLQPEDSATYYCLQVNSYPRTFGQGTRVDIK
B7: biotinylated antibody H5, recombinant human IgG1 (antibody, V domains shown)
VH: QVQLVESGPGLVKPSETLSLTCTVSGASVSSGTYYWSWIRQPPGKGLEWIGYSYYTGSSDSNASLKSRVTLSIDTSRNLLSLKLTSVTAADTAVYYCARDRRKVRGVWAGYSGMDVWGPGTTVTVSS
VL: EIVMTQSPSSLSASVGDRVTITCQASQEITNYLNWYQQKPGKAPKLLIYDASHLETGVPSRFSGSGSGTDFSFTISSLQPEDIATYYCQQYDDFPWGGVTFGGGTKVEIK
B8: antibody H5 (antibody, V domains shown)
VH: QVQLVESGPGLVKPSETLSLTCTVSGASVSSGTYYWSWIRQPPGKGLEWIGYSYYTGSSDSNASLKSRVTLSIDTSRNLLSLKLTSVTAADTAVYYCARDRRKVRGVWAGYSGMDVWGPGTTVTVSS
VL: EIVMTQSPSSLSASVGDRVTITCQASQEITNYLNWYQQKPGKAPKLLIYDASHLETGVPSRFSGSGSGTDFSFTISSLQPEDIATYYCQQYDDFPWGGVTFGGGTKVEIK
B9: biotinylated antibody E12, recombinant human IgG1 (antibody, V domains shown)
VH: EVQLVESGGDLVQPGGSLRLSCEASGFTFSNYAMSWVRQAPGKGLEWVSGTSGSGGSTYYADSVKGRFTLSRDNSKNTLYLQMNSLRAEDTAVYYCAKDREVLRFFLLPYYFDSWGQGTLVTVSS
VL: DIVMTQSPGSLSLSPGERATLSCRASQSVSSDYVAWYQQKPGQAPRLLIFDASTRATGIPDRFSGSGSGTDFTLTIGRLEPEDFAVYYCQQYGNSPLTFGGGAKVEIK
B10: antibody E12 (antibody, V domains shown)
VH: EVQLVESGGDLVQPGGSLRLSCEASGFTFSNYAMSWVRQAPGKGLEWVSGTSGSGGSTYYADSVKGRFTLSRDNSKNTLYLQMNSLRAEDTAVYYCAKDREVLRFFLLPYYFDSWGQGTLVTVSS
VL: DIVMTQSPGSLSLSPGERATLSCRASQSVSSDYVAWYQQKPGQAPRLLIFDASTRATGIPDRFSGSGSGTDFTLTIGRLEPEDFAVYYCQQYGNSPLTFGGGAKVEIK

Assays:
Test in all cases: ELISA
Conditions in all cases: both partners purified
[1] = biological target: pertussis toxin (PTx) holotoxin, native (Bordetella pertussis, strain  …, UniProt P04977;P04978;P04979;P0A3R5;P04981)
PTx B oligomer [2] = biological target: T1, PTx B oligomer (Bordetella pertussis, strain  …, UniProt P04978;P04979;P0A3R5;P04981)
[3] = biological target: pertussis toxin (native PTx holotoxin) (Bordetella pertussis, strain  …, UniProt P04977;P04978;P04979;P0A3R5;P04981)
PTx B oligomer [4] = biological target: T1, PTx B oligomer; remark: listed apart in the source
[5] = biological target: PTx S1-220 (soluble, truncated recombinant S1 subunit) (Bordetella pertussis, strain  …, UniProt P04977)

| Binder | EC50 [1] | EC50 [3] | binding result (PTx B oligomer [4]) | also measured |
| --- | --- | --- | --- | --- |
| B1 | 0.76 nM | – | – | – |
| B2 | – | 0.14 nM | – | EC50 (PTx B oligomer [2]): 0.78 nM |
| B3 | 0.24 nM | – | – | – |
| B4 | – | 0.1 nM | no binding | – |
| B5 | 0.65 nM | – | – | – |
| B6 | – | 0.15 nM | no binding | EC50 [5]: 0.02 nM |
| B7 | 0.06 nM | – | – | – |
| B8 | – | 0.02 nM | – | EC50 (PTx B oligomer [2]): 0.11 nM |
| B9 | 0.56 nM | – | – | – |
| B10 | – | 0.13 nM | no binding | EC50 [5]: 0.05 nM |
